Experimental data published in doi:10.1101/2025.08.01.668090, “Target Preference Maps: A machine learning model generalizing transferable drug-receptor interactions and guiding drug discovery” (bioRxiv, 2025).
Where no end group is shown, it is not given here.

Target: T1, N-terminal domain of T. brucei PEX14 (residues 19-84) (T. brucei, UniProt Q38CL4 19-84)
T1 construct: also called N-His-PEX14; source: E. coli BL21(DE3), purified (Ni-NTA, Superdex 75); not shown: His tag, N-terminal, kept
T1 sequence (looked up): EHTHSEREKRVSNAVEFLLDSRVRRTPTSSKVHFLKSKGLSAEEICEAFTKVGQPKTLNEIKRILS
Test: AlphaScreen or HTRF; 3 nM N-His-PEX14 with 10 nM biotinylated PEX5-derived peptide in PBS with 5 mg/mL BSA and 0.01 % (v/v) Tween-20; streptavidin donor beads and nickel chelate acceptor beads, 5 ug/mL each; competition with small-molecule inhibitors (600-0 uM), 5% DMSO
Conditions: both partners purified

B1: biotinylated PEX5-derived peptide (ALSENWAQEFLA) (peptide)
peptide: ALSENWAQEFLA
modifications: also: biotinylated (position not given here)
notes: PEX5-derived peptide with a WxxxF motif; Held on streptavidin donor beads by its biotin; The same peptide was used with PEX14 of all three species
B1: binds.
